Results on 94 variants are retold here after the supplement of paper PMC10567573.

The chains are these.
B1: FAM164A (parent)
chain: YDPDYIQCPYCQRRFNENAADRHI
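Further: lentivirally expressed fusions sorted by FACS into six bins by GFP to DsRed ratio, PSI derived from sequencing read proportions per bin multiplied by bin number.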

The data set covers variants of B1. In words: protein stability index of a GFP-peptide fusion (GPS, HEK-293T) (PSI 1-6); higher = more stable. The note with it: c terminus: a fixed tail appended.
On to YDPDYIQCPYCQRRFNENAWDRHI [A20W], for which the protein stability index was determined as 3.52.

As to YDPDYIQCPYCQRRFNENAVDRHI [A20V], the protein stability index was determined as 4.36.

On to YDPDYIQCPYCQRRFNENALDRHI [A20L], for which the protein stability index stood at 4.25.

Consider YDPDYIQCPYCQRRFNENAFDRHI [A20F], for which the protein stability index came out at 3.87.

As for YDPDYIQCPYCQRRFNENAHDRHI [A20H], the protein stability index was found to be 3.95.

As to YDPDYIQCPYCQRRFNENARDRHI [A20R], the protein stability index stood at 4.24.

For the variant YDPDYIQCPYCQRRFNENAKDRHI [A20K], the protein stability index was 3.76.

With YDPDYIQCPYCQRRFNENADDRHI [A20D], the protein stability index is 4.25.

Turning to YDPDYIQCPYCQRRFNENAMDRHI [A20M], the protein stability index was determined as 4.12.

Take YDPDYIQCPYCQRRFNENACDRHI [A20C]: the protein stability index amounted to 4.44.

Take YDPDYIQCPYCQRRFNENAADHHI [R22H]: the protein stability index came to 4.46.

YDPDYIQCPYCQRRFNENAADDHI [R22D]: the protein stability index is 4.57.

Take YDPDYIQCPYCQRRFNENAADKHI [R22K]: the protein stability index turned out to be 4.51.

Take YDPDYIQCPYCQRRFNENAADCHI [R22C]: the protein stability index was 4.43.

With YDPDYIQCPYCQRRFNENAADFHI [R22F], the protein stability index came out at 3.26.

Take YDPDYIQCPYCQRRFNENAADQHI [R22Q]: the protein stability index turned out to be 4.59.

YDPDYIQCPYCQRRFNENAADLHI [R22L]: the protein stability index came out at 4.08.

In the case of YDPDYIQCPYCQRRFNENAADAHI [R22A], the protein stability index is 4.49.

As for YDPDYIQCPYCQRRFNENAADVHI [R22V], the protein stability index was determined as 4.17.

Take YDPDYIQCPYCQRRFNENAADSHI [R22S]: the protein stability index stood at 4.03.

Regarding YDPDYIQCPYCQRRFNENAADPHI [R22P], the protein stability index amounted to 4.29.

YDPDYIQCPYCQRRFNENAADMHI [R22M]: the protein stability index was 4.48.

As for YDPDYIQCPYCQRRFNENAADIHI [R22I], the protein stability index was determined as 4.03.

Consider YDPDYIQCPYCQRRFNENAADYHI [R22Y], for which the protein stability index worked out at 3.81.

With YDPDYIQCPYCQRRFNENAADWHI [R22W], the protein stability index came to 3.15.

In the case of YDPDYIQCPYCQRRFNENAADNHI [R22N], the protein stability index is 4.29.

Regarding YDPDYIQCPYCQRRFNENAADTHI [R22T], the protein stability index is 4.02.

With YDPDYIQCPYCQRRFNENAADEHI [R22E], the protein stability index was determined as 4.47.

For YDPDYIQCPYCQRRFNENAADGHI [R22G], the protein stability index was determined as 4.24.

In the case of YDPDYIQCPYCQRRFNENAADRHS [I24S], the protein stability index worked out at 4.56.

As for YDPDYIQCPYCQRRFNENAADRHQ [I24Q], the protein stability index came out at 4.57.

Take YDPDYIQCPYCQRRFNENAADRHC [I24C]: the protein stability index is 4.12.

In the case of YDPDYIQCPYCQRRFNENAADRHW [I24W], the protein stability index stood at 2.89.

Consider YDPDYIQCPYCQRRFNENAADRHH [I24H], for which the protein stability index came to 4.4.

With YDPDYIQCPYCQRRFNENAADRHL [I24L], the protein stability index came to 3.88.

Regarding YDPDYIQCPYCQRRFNENAADRHN [I24N], the protein stability index was 4.47.

For YDPDYIQCPYCQRRFNENAADRHV [I24V], the protein stability index was 4.6.

Consider YDPDYIQCPYCQRRFNENAADRHG [I24G], for which the protein stability index stood at 4.43.

YDPDYIQCPYCQRRFNENAADRHR [I24R]: the protein stability index was found to be 3.9.

With YDPDYIQCPYCQRRFNENAADRHD [I24D], the protein stability index is 4.92.

As to YDPDYIQCPYCQRRFNENAADRHP [I24P], the protein stability index is 4.25.

On to YDPDYIQCPYCQRRFNENAADRHF [I24F], for which the protein stability index was found to be 3.88.

Take YDPDYIQCPYCQRRFNENAADRHM [I24M]: the protein stability index came to 4.03.

In the case of YDPDYIQCPYCQRRFNENAADRHE [I24E], the protein stability index was 4.25.

In the case of YDPDYIQCPYCQRRFNENAADRHK [I24K], the protein stability index stood at 4.29.

With YDPDYIQCPYCQRRFNENAADRHA [I24A], the protein stability index stood at 4.74.

YDPDYIQCPYCQRRFNENAADRHT [I24T]: the protein stability index stood at 4.18.

Turning to YDPDYIQCPYCQRRFNENAADRHY [I24Y], the protein stability index came to 4.01.

On to YDPDYIQCPYCQRRFNENAADRLI [H23L], for which the protein stability index came out at 3.9.

For YDPDYIQCPYCQRRFNENAADRCI [H23C], the protein stability index amounted to 4.54.

In the case of YDPDYIQCPYCQRRFNENAADRFI [H23F], the protein stability index came to 3.3.

As to YDPDYIQCPYCQRRFNENAADRII [H23I], the protein stability index came to 4.21.

As to YDPDYIQCPYCQRRFNENAADRMI [H23M], the protein stability index turned out to be 4.4.

For YDPDYIQCPYCQRRFNENAADRQI [H23Q], the protein stability index turned out to be 4.22.

As to YDPDYIQCPYCQRRFNENAADREI [H23E], the protein stability index came to 5.08.

Turning to YDPDYIQCPYCQRRFNENAADRDI [H23D], the protein stability index worked out at 4.81.

Regarding YDPDYIQCPYCQRRFNENAADRYI [H23Y], the protein stability index is 3.83.

On to YDPDYIQCPYCQRRFNENAADRNI [H23N], for which the protein stability index worked out at 4.15.

On to YDPDYIQCPYCQRRFNENAADRKI [H23K], for which the protein stability index turned out to be 4.11.

As to YDPDYIQCPYCQRRFNENAADRPI [H23P], the protein stability index was found to be 3.86.

YDPDYIQCPYCQRRFNENAADRAI [H23A]: the protein stability index is 4.4.

Regarding YDPDYIQCPYCQRRFNENAADRSI [H23S], the protein stability index was 3.67.

Regarding YDPDYIQCPYCQRRFNENAADRTI [H23T], the protein stability index worked out at 3.65.

In the case of YDPDYIQCPYCQRRFNENAADRVI [H23V], the protein stability index is 4.25.

On to YDPDYIQCPYCQRRFNENAADRRI [H23R], for which the protein stability index was determined as 3.96.

In the case of YDPDYIQCPYCQRRFNENAADRWI [H23W], the protein stability index is 3.63.

Consider YDPDYIQCPYCQRRFNENAADRGI [H23G], for which the protein stability index came to 4.05.

As to YDPDYIQCPYCQRRFNENAARRHI [D21R], the protein stability index worked out at 4.07.

As to YDPDYIQCPYCQRRFNENAAERHI [D21E], the protein stability index amounted to 4.42.

In the case of YDPDYIQCPYCQRRFNENAAMRHI [D21M], the protein stability index amounted to 3.94.

Turning to YDPDYIQCPYCQRRFNENAACRHI [D21C], the protein stability index was 4.8.

Regarding YDPDYIQCPYCQRRFNENAAGRHI [D21G], the protein stability index stood at 3.9.

With YDPDYIQCPYCQRRFNENAAWRHI [D21W], the protein stability index came out at 3.51.

YDPDYIQCPYCQRRFNENAAYRHI [D21Y]: the protein stability index turned out to be 4.03.

On to YDPDYIQCPYCQRRFNENAAVRHI [D21V], for which the protein stability index came to 4.25.

Regarding YDPDYIQCPYCQRRFNENAANRHI [D21N], the protein stability index is 4.72.

YDPDYIQCPYCQRRFNENAATRHI [D21T]: the protein stability index was found to be 4.21.

Take YDPDYIQCPYCQRRFNENAALRHI [D21L]: the protein stability index was 4.55.

Take YDPDYIQCPYCQRRFNENAAHRHI [D21H]: the protein stability index was 3.93.

For YDPDYIQCPYCQRRFNENAAARHI [D21A], the protein stability index stood at 4.33.

With YDPDYIQCPYCQRRFNENAAPRHI [D21P], the protein stability index worked out at 3.92.

In the case of YDPDYIQCPYCQRRFNENAAKRHI [D21K], the protein stability index was 4.46.

Turning to YDPDYIQCPYCQRRFNENAAFRHI [D21F], the protein stability index stood at 3.72.

Turning to YDPDYIQCPYCQRRFNENAAQRHI [D21Q], the protein stability index was 4.71.

Turning to YDPDYIQCPYCQRRFNENAASRHI [D21S], the protein stability index was 4.57.

With YDPDYIQCPYCQRRFNENAAIRHI [D21I], the protein stability index turned out to be 4.63.

On to YDPDYIQCPYCQRRFNENVADRHI [A19V], for which the protein stability index came to 3.82.

Take YDPDYIQCPYCQRRFNENQADRHI [A19Q]: the protein stability index turned out to be 4.37.

For YDPDYIQCPYCQRRFNENSADRHI [A19S], the protein stability index was found to be 4.59.

For YDPDYIQCPYCQRRFNENWADRHI [A19W], the protein stability index is 3.66.

For YDPDYIQCPYCQRRFNENRADRHI [A19R], the protein stability index turned out to be 4.11.

In the case of YDPDYIQCPYCQRRFNENTADRHI [A19T], the protein stability index was found to be 4.51.

Consider YDPDYIQCPYCQRRFNENPADRHI [A19P], for which the protein stability index amounted to 4.03.

For YDPDYIQCPYCQRRFNENYADRHI [A19Y], the protein stability index is 3.58.
